The target in assay [1] is GST-CDK4 (UniProt P11802). Kind of assay: MST; microscale thermophoresis of MBP-P16p and MBP-cycP16p with GST-CDK4; three replicate measurements. Background: In MST a laser heats a spot of the sample, and binding alters the fluorescence response.
In assay [2] the target is CDK4 from MCF-7 cell lysate (human (endogenous in MCF-7)) (UniProt P11802).
The target is the same in assay [3]. The source holds these as a separate data set.

pKd: −log10 of the molar value.

The values below come from PMC10176472.

Turning to “cyclized MBP-P16p protein (MBP-cycP16p) (from UniProt P42771 83-103) (peptide)”, the pKd in assay [1] was 7.56. On to “bicyclic cycRGD-mCh-cycP16p (from UniProt P42771 83-103)”, for which the G0/G1 cell cycle arrest of MCF-7 cells, time course up to 72 h in serum-supplemented medium in assay [2] turned out to be 88%. In addition, in assay [3], the G0/G1 cell cycle arrest of MCF-7 cells treated for 24 h with different concentrations, flow cytometry; value at 15 μM is 76.7%.

In assay [1], “MBP-P16p (linear counterpart of MBP-cycP16p) (from UniProt P42771 83-103) (peptide)” gave a pKd of 6.93.

One may read the pKd as the Kd on a negative log10 scale, so that one unit is a factor of ten. Low readings indicate a large Kd, high ones a small Kd.
